The record followed here is US20230086530A1.

Assay [1] deals with human CD47 on the cell membrane surface of CD47 positive tumor cells (Raji, NUGC-4, Jurkat) (human) (UniProt Q08722). As to the kind of experiment: FACS on Raji cells, 0.05 µg/mL.
For assay [2] the target is unchanged. As to the kind of experiment: FACS on Raji cells, 0.5 µg/mL.

Sequence of human CD47 on the cell membrane surface of CD47 positive tumor cells (Raji, NUGC-4, Jurkat) (human) (Q08722 19-323): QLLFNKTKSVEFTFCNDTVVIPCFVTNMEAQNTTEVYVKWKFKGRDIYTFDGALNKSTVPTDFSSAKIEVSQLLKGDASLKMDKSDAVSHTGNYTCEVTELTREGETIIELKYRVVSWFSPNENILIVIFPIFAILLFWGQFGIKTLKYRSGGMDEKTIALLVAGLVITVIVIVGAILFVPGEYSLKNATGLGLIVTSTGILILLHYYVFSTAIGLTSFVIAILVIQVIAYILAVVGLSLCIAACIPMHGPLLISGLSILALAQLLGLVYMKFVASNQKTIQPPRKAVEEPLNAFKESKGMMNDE

Turning to isotype control antibody, the Mean fluorescence intensity (multiple) in assay [1] and in assay [2] was 1 fold each time.
